The target of experiment [1] is Canine FcRn-B2M recombinant protein (Immunitrack) (canine). The experiment is described as follows: SPR (Biacore 8K), canine FcRn-B2M amine-coupled on CM5 chip, running buffer pH 6, steady state affinity. On the technique in general: Surface plasmon resonance follows binding to a sensor surface in real time, without labels.
Experiment [2] deals with T1, Human nerve growth factor (NGF) (human, UniProt P01138 122-241).
T1 construct: Bought reagent for SPR; also called human NGF; hNGF
The experiment is described as follows: SPR (Biacore 8K), human NGF as analyte on Bedinvetmab, kinetics affinity, 1:1 binding fit.

Experiment [3] deals with T1, Human nerve growth factor (NGF). The experiment is described as follows: cell-based or functional assay.
The target is the same in experiment [4]. The experiment in a line: SPR (Biacore 8K), PetML119 captured on Protein A chip, human NGF as analyte, kinetics affinity.
Description: (§1) Briefly, Protein A Sensor Chip (Cytiva) was docked into Biacore 8K, equilibrated for 30' at RT and then Running Buffer (10 mM HEPES pH7.4 150 mM NaCl 3 mM EDTA and 0.005% Tween20) was applied to the SPR chip surface.
(§2) These have been immobilised using 90 sec association at 10 uL/min as capturing step, followed by injection of running buffer to remove any unbound product.
(§3) Kinetics were assessed using multi-cycle kinetics with capture step method (30 sec association-120 sec dissociation) followed by regeneration step (0.1M Glycine pH2.2 contact time 60 sec FR 30 uL/min).
For experiment [5], the target named is T2, Murine FcRn-B2M recombinant protein (Immunitrack) (murine, UniProt Q61559 22-297; P01887 21-119, limits assumed).
T2 construct: Bought reagent, amine-coupled to a CM5 chip; also called murine neonatal receptor
T2 sequence (looked up): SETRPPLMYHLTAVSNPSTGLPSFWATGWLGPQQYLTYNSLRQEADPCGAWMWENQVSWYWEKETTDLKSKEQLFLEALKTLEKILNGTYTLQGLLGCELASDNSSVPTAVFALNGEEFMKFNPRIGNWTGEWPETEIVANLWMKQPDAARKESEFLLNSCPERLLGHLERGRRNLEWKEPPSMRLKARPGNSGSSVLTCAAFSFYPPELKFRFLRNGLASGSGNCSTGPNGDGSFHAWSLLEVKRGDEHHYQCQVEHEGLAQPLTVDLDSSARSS
T2 sequence (b2m, looked up): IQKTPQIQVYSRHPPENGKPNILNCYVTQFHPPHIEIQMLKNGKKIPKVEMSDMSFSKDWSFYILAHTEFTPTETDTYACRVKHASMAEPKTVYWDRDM
The experiment is described as follows: SPR (Biacore 8K), murine FcRn-B2M amine-coupled on CM5 chip, running buffer pH 6, steady state affinity.
Description: (§4) Briefly, CM5 Sensor Chip (Cytiva) was docked into Biacore 8K, equilibrated for 30' at RT and then Running Buffer (10 mM HEPES pH6 150 mM NaCl 3 mM EDTA and 0.005% Tween20) was applied to the SPR chip surface.
(§5) Canine and murine FcRn-B2M recombinant protein (Immunitrack, ITF12-ITF08) was diluted into 10 mM acetate buffer pH4.5 at 4 nM (1:2000 dilution from stock) and immobilised using standard amine coupling reaction.

Experiment [6] concerns the target T3, Rat nerve growth factor (NGF) (rat, UniProt P25427 122-241).
T3 construct: Bought reagent; also called rat NGF
The experiment is described as follows: SPR (Biacore 8K), PetML119 captured on Protein A chip, rat NGF as analyte, kinetics affinity.
Description: as §1, §2, §3

The target in experiment [7] is T2, Murine FcRn-B2M recombinant protein …. The experiment is described as follows: SPR (Biacore 8K), murine FcRn-B2M amine-coupled on CM5, pH 6, multi-cycle kinetics; reference not named, taken as PetML119 (wild type Fc).
Description: as §4, §5
Experiment [8] shares this target. The experiment is described as follows: SPR (Biacore 8K), murine FcRn-B2M amine-coupled on CM5 chip, running buffer pH 6, steady state affinity. The source holds these as a separate data set.
Description: as §4, §5

Like-named read-outs stand apart in the source and are kept apart here.

T1 sequence (P01138 122-241 limits assumed): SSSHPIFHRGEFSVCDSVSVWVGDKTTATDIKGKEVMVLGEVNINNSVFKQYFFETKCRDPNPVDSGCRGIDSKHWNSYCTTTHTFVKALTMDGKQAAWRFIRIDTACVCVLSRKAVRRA
T3 sequence (P25427 122-241 limits assumed): as the sequence (P01138 122-241 limits assumed) above, with S3T, I6V, R9M, M37T, D60A, D65E, M92T, G94D, V117A, A120G counted along it

Consider “PetML122 (canine p75NTR ECD - canine Fc YTE protein fusion) (Fc fusion)”, for which the Kd (commonly the constant that tells how readily two partners part at equilibrium) in experiment [1] was determined as 400 nM.
Same read-out and setting: the figure for “PetML119 (canine p75NTR ECD - canine IgGB wt Fc protein fusion) (Fc fusion)” is 6000 nM.

B1: Bedinvetmab (antibody, V domains shown)
VH: EVQLVESGGDLVKPGGSLRLSCVASGFTFSSHGMHWVRQSPGKGLQWVAVINSGGSSTYYTDAVKGRFTISRDNAKNTVYLQMNSLRAEDTAMYYCAKESVGGWEQLVGPHFDYWGQGTLVIVSS
VL: QSVLTQPTSVSGSLGQRVTISCSGSTNNIGILGASWYQLFPGKAPKLLVYGNGNRPSGVPDRFSGADSGDSVTLTITGLQAEDEADYYCQSFDTTLGAHVFGGGTHLTVL
Take B1: the dissociation constant (Kd) in experiment [2] stood at 0.073 nM. Also, in experiment [3], the “IC50 (nM), inhibition of TF-1 cell proliferation” value (“IC50 (nM), inhibition” for short) stood at 1.65 nM.

B2: PetML119 (canine p75NTR ECD - canine IgGB wt Fc protein fusion) (Fc fusion)
chain: KEACPTGLYTHSGECCKACNLGEGVAQPCGANQTVCEPCLDSVTFSDVVSATEPCKPCTECVGLQSMSAPCVEADDAVCRCAYGYYQDETTGRCEACRVCEAGSGLVFSCQDRQNTVCEECPDGTYSDEANHVDPCLPCTVCEDTERQLRECTRWADAECEEIPGGGGRENGRVPRPPDCPKCPAPEMLGGPSVFIFPPKPKDTLLIARTPEVTCVVVDLDPEDPEVQISWFVDGKQMQTAKTQPREEQFNGTYRVVSVLPIGHQDWLKGKQFTCKVNNKALPSPIERTISKARGQAHQPSVYVLPPSREELSKNTVSLTCLIKDFFPPDIDVEWQSNGQQEPESKYRTTPPQLDEDGSYFLYSKLSVDKSRWQRGDTFICAVMHEALHNHYTQKSLSHSPGK
notes: also called PetMI119; Fc-Bwt
For the molecule B2, the “IC50 (nM), inhibition” value in experiment [3] was determined as 15.2 nM. Further, the values for the Kd in experiment [4], in experiment [5] and in experiment [6] were 0.12 nM, 2000 nM and 0.12 nM, respectively.

B3: PetML122 (canine p75NTR ECD - canine Fc YTE protein fusion) (Fc fusion)
chain: KEACPTGLYTHSGECCKACNLGEGVAQPCGANQTVCEPCLDSVTFSDVVSATEPCKPCTECVGLQSMSAPCVEADDAVCRCAYGYYQDETTGRCEACRVCEAGSGLVFSCQDRQNTVCEECPDGTYSDEANHVDPCLPCTVCEDTERQLRECTRWADAECEEIPGGGGRENGRVPRPPDCPKCPAPEMLGGPSVFIFPPKPKDTLYITREPEVTCVVVDLDPEDPEVQISWFVDGKQMQTAKTQPREEQFNGTYRVVSVLPIGHQDWLKGKQFTCKVNNKALPSPIERTISKARGQAHQPSVYVLPPSREELSKNTVSLTCLIKDFFPPDIDVEWQSNGQQEPESKYRTTPPQLDEDGSYFLYSKLSVDKSRWQRGDTFICAVMHEALHNHYTQKSLSHSPGK
notes: Same construct as PetML119, but with the YTE triple mutation in the Fc; also called PetMI122; Fc-B-YTE
As for B3, the “IC50 (nM), inhibition” value in experiment [3] turned out to be 5.91 nM. In addition, the “fold increase in binding affinity” value in experiment [7] was 10 fold. Besides, the dissociation constant (Kd) in experiment [8] turned out to be 90 nM.

(Values after patent US11608371 (PETMEDIX, dated 2023).)
